From US20120277286A1, “COMPOSITIONS AND METHODS FOR THE TREATMENT OR PREVENTION OF MITOCHONDRIAL DISEASES” (The Government of the USA, as represented by the Secretary, …, priority 2009, published 2012)

B1: PINK1: exogenously expressed wild type PINK1 (V5 or myc tagged) (protein, UniProt Q9BXM7 78-581, looked up)
Serine/threonine-protein …: AARLQRQFVVRAWGCAGPCGRAVFLAFGLGLGLIEEKQAESRRAVSACQEIQAIFTQKSKPGPDPLDTRRLQGFRLEEYLIGQSIGKGCSAAVYEATMPTLPQNLEVTKSTGLLPGRGPGTSAPGEGQERAPGAPAFPLAIKMMWNISAGSSSEAILNTMSQELVPASRVALAGEYGAVTYRKSKRGPKQLAPHPNIIRVLRAFTSSVPLLPGALVDYPDVLPSRLHPEGLGHGRTLFLVMKNYPCTLRQYLCVNTPSPRLAAMMLLQLLEGVDHLVQQGIAHRDLKSDNILVELDPDGCPWLVIADFGCCLADESIGLQLPFSSWYVDRGGNGCLMAPEVSTARPGPRAVIDYSKADAWAVGAIAYEIFGLVNPFYGQGKAHLESRSYQEAQLPALPESVPPDVRQLVRALLQREASKRPSARVAANVLHLSLWGEHILALKNLKLDKMVGWLLQQSAATLLANRLTEKCCVETKMKMLFLANLECETLCQAALLLCSWRAAL
modifications: V5 or myc tag
B2: YFP-Parkin: YFP-tagged Parkin E3 ligase expressed from a transfected vector (protein, UniProt O60260 1-465, looked up)
E3 ubiquitin-protein ligase …: MIVFVRFNSSHGFPVEVDSDTSIFQLKEVVAKRQGVPADQLRVIFAGKELRNDWTVQNCDLDQQSIVHIVQRPWRKGQEMNATGGDDPRNAAGGCEREPQSLTRVDLSSSVLPGDSVGLAVILHTDSRKDSPPAGSPAGRSIYNSFYVYCKGPCQRVQPGKLRVQCSTCRQATLTLTQGPSCWDDVLIPNRMSGECQSPHCPGTSAEFFFKCGAHPTSDKETSVALHLIATNSRNITCITCTDVRSPVLVFQCNSRHVICLDCFHLYCVTRLNDRQFVHDPQLGYSLPCVAGCPNSLIKELHHFRILGEEQYNRYQQYGAEECVLQMGGVLCPRPGCGAGLLPEPDQRKVTCEGGNGLGCGFAFCRECKEAYHEGECSAVFEASGTTTQAYRVDERAAEQARWEAASKETIKKTTKPCPRCHVPVEKNGGCMHMKCPQPQCRLEWCWNCGCEWNRVCMGDHWFDV
modifications: YFP fusion
notes: YFP-tagged Parkin E3 ligase expressed from a transfected vector

Experiments:
[1] = system: PINK1+/+ or PINK1−/− MEFs; assay: Parkin-induced mitophagy in MEFs; type: cell-based, mouse; settings: primary MEFs expressing YFP-Parkin, 20 μM CCCP, 24 hours; PINK1+/+ (CCCP line) or PINK−/− reconstituted with PINK1
Text: (§1) HeLa YFP-Parkin, PINK1+/+ SV40 transformed MEFs cells, PINK1−/− SV40 transformed MEF, M17 neuroblastoma control shRNA, M17 neuroblastoma PINK1, and Mfn1/2−/− MEF cell lines have been described previously (Narendra (2008) J Cell Biol 183: 795-803). PINK1+/+ and PINK1−/− primary MEFs were isolated from embryos using a standard protocol (Gautier (2008) Proc Natl Acad Sci USA 105: 11364-11369). Parkin+/+ and Parkin−/− transformed MEFs were created by isolation of primary cells from embryos of B6.129S4-Park2tm1Shn/J mice (Jackson Labs), using a standard protocol (Gautier (2008) Proc Natl Acad Sci USA 105: 11364-11369), followed by retroviral transduction of SV40 (Applied Biological Materials, Inc.). YFP-Parkin, YFPParkin mutants, mCherry-Parkin, PINK1-YFP, PINK1 KD-YFP, PINK1 Δ1-110-YFP, and Opa3-PINK1 Δ1-110-YFP are in C1 or N1 Clontech vectors. PINK1WT-V5, PINK1 KD-V5, and PINK1 Δ1-156-V5 are in pDest40 vector (Invitrogen). PINK1 patient mutations are in pLenti-V5 vector (Invitrogen). PINK1-myc is in a pCMBTNT vector (Promega).
Confocal microscopy of fixed samples, scoring of Parkin recruitment and Parkininduced mitophagy, and live cell imaging were performed as described previously (Narendra (2008) J Cell Biol 183: 795-803). Experiments in Mfn1/2 null cells were performed as described previously with minor modifications. […]

[2] = system: PINK1+/+ or PINK1−/− MEFs; assay: YFP-Parkin recruitment to mitochondria in MEFs; type: cell-based, mouse; settings: for Parkin recruited to mitochondria, % of cells: CCCP
Text: as §1
(§2) Confocal microscopy of fixed samples, scoring of Parkin recruitment and Parkininduced mitophagy, and live cell imaging were performed as described previously (Narendra (2008) J Cell Biol 183: 795-803). Experiments in Mfn1/2 null cells were performed as described previously with minor modifications.
HeLa YFP-Parkin, E18 Rat cortical neurons, PINK1^+/+ SV40 transformed MEFs cells, PINK1^−/− SV40 transformed MEF, M17 neuroblastoma control shRNA, M17 neuroblastoma PINK1, Mfn1/2^−/− MEF, and Parl^−/− MEF cell lines have been described previously (Narendra (2008) J Cell Biol 183: 795-803). PINK1^+/+ and PINK1^−/− primary MEFs were isolated from embryos using a standard protocol (Gautier (2008) Proc Natl Acad Sci USA 105: 11364-11369). Parkin^+/+ and Parkin^−/− transformed MEFs were created by isolation of primary cells from embryos of B6.129S4-Park2^tm1Shn/J mice (Jackson Labs), using a standard protocol (Gautier (2008) Proc Natl Acad Sci USA 105: 11364-11369), followed by retroviral transduction of SV40 (Applied Biological Materials, Inc.). YFP-Parkin, YFP-Parkin mutants, mCherry-Parkin, PINK1-YFP, PINK1 KD-YFP, PINK1 Δ1-110-YFP, and Opa3-PINK1 Δ1-110-YFP are in C1 or N1 Clontech vectors. PINK1WT-V5, PINK1 KD-V5, and PINK1 Δ1-156-V5 are in pDest40 vector (Invitrogen). PINK1 patient mutations are in the pLenti-V5 vector (Invitrogen). PINK1-myc is in a pCMBTNT vector (Promega). The PARL shRNA construct targeting (5′ […] 3′) is in the pSuper-GFP vector. To make FRB-PINK1 (111-581)-YFP and Tom20 (1-33)-FKBP, PCR fragments containing PINK1 (111-581)-YFP and Tom20 (1-33) were cloned into the BamHI site of the pC4-RHE vector and the EcoRI and XbaI sites of pC4M-F2E vectors, respectively (ARIAD Pharmaceuticals). The rapamycin analogue AP21967 was obtained from ARIAD Pharmaceuticals. The PARL shRNA construct targeting (5′ […] 3′) is in the pSuper-GFP vector (OligoEngine).
as §2, with “Parkin-induced” for “Parkininduced”, “imageing” for “imaging”, “modifications described in the supplemental methods (Narendra (2008) J Cell Biol 183: 795-803).” for “modifications.”

[3] = system: HeLa cells; assay: Live cell imaging, time to Parkin translocation; type: cell-based; settings: mCherry-Parkin alone (CCCP line) or with PINK1-YFP 1:1, 10 μM CCCP
Experimental: FIGS. 13A-13D show the kinetics of Parkin recruitment are modulated by PINK1 expression. […] The cells were imaged live following the addition of 10 μM CCCP in serum at time point 0 min FIG. 13B lists the vectors used for transfection of HeLa cells with mCherry-Parkin and the indicated construct in a 1:1 ratio were treated as in (A) and imaged live (1 frame/minute) following the addition of CCCP. Time to the beginning of Parkin translocation was defined as the first appearance of puncta in ≧2 quandrants of the cell for ≧2 consecutive images for ≧6 cells in ≧3 independent experiments. […] Cells were loaded with TMRE (red) to stain polarized mitochondria. Cells were not treated with CCCP. Scale bars in last image=10 μm. FIG. 13D is a graph that quantitates results in cells treated as described in FIG. 13C, which were scored for co-localization between YFP-Parkin and TMRE. ≧50 cells/experiment were scored in ≧3 independent experiments.
as §2, with “Parkin-induced” for “Parkininduced”, “imageing” for “imaging”, “modifications described in the supplemental methods (Narendra (2008) J Cell Biol 183: 795-803).” for “modifications.”

[4] = system: HeLa cells; assay: Parkin-induced mitophagy, loss of mitochondria by immunocytochemistry; type: cell-based
Experimental: Cultured cells seeded in borosilicate chamber slides (Thermo Fisher Scientific) were transfected or cotransfected with YFP-Parkin, ECFP-Parkin, mCherry-Parkin, DsRed-Mito (Clontech Laboratories, Inc.), pcDNA3.1 (Invitrogen), vMIA, and/or Drp1K38A constructs using Fugene 6 (Roche). Parkin-myc was a gift from M. Cookson (National Institutes of Health, Bethesda, Md.). Cells were fixed 12-24 hours after transfection with 4% paraformaldehyde in PBS. Cells were stained with following primary antibodies: mouse monoclonal cytochrome c (BD), rabbit polyclonal Tom20 (Santa Cruz Biotechnology, Inc.), mouse monoclonal Parkin PRK8 (Santa Cruz Biotechnology, Inc.), rabbit polyclonal PMP70 (Invitrogen), and/or mouse monoclonal TRAP1 (Abcam); and with the following secondary antibodies: mouse and/or rabbit Alexa 488, 594, and 633 (Invitrogen). For assessment of mitochondrial membrane potential, cells were pulsed with 50 nM Mito-Tracker red (Invitrogen) for 15 min, washed, and incubated for an additional 10 minutes before fixation or imaging. For assessment of cell metabolic potential, cell nuclei were stained with Hoechst 33342 (Invitrogen).
as §2
as §2, with “Parkin-induced” for “Parkininduced”, “imageing” for “imaging”, “modifications described in the supplemental methods (Narendra (2008) J Cell Biol 183: 795-803).” for “modifications.”

Molecule | cells with no detectable mitochondria [1] | YFP-Parkin recruited to mitochondria, % of cells ([2]; PINK1+/+ primary MEFs, 20 μM CCCP, 3 hours) | Parkin recruited to mitochondria, % of cells ([2]; SV40 transformed PINK1+/+ MEFs) | time to translocation of Parkin [3] | reconstitution of YFP-Parkin recruitment ([2]; PINK1−/− primary MEFs co-transfected with construct, 20 μM CCCP, 3 hours) | YFP-Parkin recruited to mitochondria, % of cells ([2]; PINK1−/− primary MEFs expressing the PINK1 construct, 20 μM CCCP, 3 hours) | Parkin recruited to mitochondria, % of cells ([2]; SV40 transformed PINK1−/− MEFs with exogenous construct) | cells with no mitochondria ([4]; HeLa, co-transfection with Parkin, 96 hours, absence of CCCP) | cells with no mitochondria ([4]; HeLa expressing YFP-Parkin variant, CCCP 24 hours) | mitochondrial mass in Parkin-expressing cells ([4]; HeLa, 10 μM CCCP, 12 hours) | mitochondria detectable in Parkin-expressing cells (Tom20, cytochrome c, TRAP1) ([4]; HeLa, 10 μM CCCP, 48 hours)
N#CC(C#N)=NNc1cccc(Cl)c1 [CCCP, carbonyl cyanide m-chlorophenylhydrazone] | 66.1±16.8% | 43.3±8.1% | 60.7±7.7% | 32.0 ± 5.4 min |  |  |  |  |  |  | 
B1 | 65.5±5.0% |  |  | 5.0 ± 1.5 min | reconstituted | 78.6±3.9% | 72.8±7.7% | 42.1±7.3% |  |  | 
B2 |  |  |  |  |  |  |  |  | 59.0±15.1% | grossly reduced | no mitochondria remained detectable
